Columns and labels:
Conditions in all cases: both partners purified
[1] = molecular target: T1, actin capping protein (CP), chicken α1/β1, CP_full (chicken, UniProt P13127 1-286; P14315 1-277); assay: SPR; competition: GST-CA92 immobilised, perfused with 50 nM wild type CP pre-mixed with various concentrations of CARMIL peptides (CA21 up to 500 nM)
[2] = molecular target: CPβΔC (chicken α1 full/β1 1–244; a deletion mutant CP lacking the β-tentacle) (chicken, UniProt P13127 1-286; P14315 1-244); assay: crystal structure; complexes formed with 1.2–2.0-fold molar excess of V-1 or peptide and purified by gel filtration; hanging-drop vapor diffusion at 20°C; molecular replacement
[3] = molecular target: T1, actin capping protein (CP), chicken …; assay: SPR; as a1, but koff >0.1 s^-1: amount of bound CP at the steady state plotted against the concentration of CP (Michaelis-Menten plots under saturated binding conditions)
[4] = molecular target: T1, actin capping protein (CP), chicken …; assay: SPR; GST-fusion protein (GST-V-1, GST-CA or GST-CD) immobilised on a CM5 chip via anti-GST antibodies (up to 200 RU), CP perfused at 20 µl/min; 20°C; 50 mM KCl, 1 mM MgCl2, 0.005% Tween-20, 10 mM imidazole pH 7.0; 1:1 fit, KD from the kinetic rate constants (steady state for several fast-dissociating mutants)
[5] = molecular target: CP (β) D44N (chicken, UniProt P13127 1-286; P14315 1-277, D44N); assay: SPR; as a1, but koff >0.1 s^-1: amount of bound CP at the steady state plotted against the concentration of CP (Michaelis-Menten plots under saturated binding conditions)
[6] = molecular target: CP (β) D63N (chicken, UniProt P13127 1-286; P14315 1-277, D63N); assay: as above
[7] = molecular target: CP (β) D67N (chicken, UniProt P13127 1-286; P14315 1-277, D67N); assay: as above
[8] = molecular target: CP (β) Y64F (chicken, UniProt P13127 1-286; P14315 1-277, Y64F); assay: SPR; GST-fusion protein (GST-V-1, GST-CA or GST-CD) immobilised on a CM5 chip via anti-GST antibodies (up to 200 RU), CP perfused at 20 µl/min; 20°C; 50 mM KCl, 1 mM MgCl2, 0.005% Tween-20, 10 mM imidazole pH 7.0; 1:1 fit, KD from the kinetic rate constants (steady state for several fast-dissociating mutants)

| Binder | binding result [1] | binding result [2] | Kd [3] [nM] | koff [3] [s⁻¹] | Kd [4] [nM] | koff [4] [s⁻¹] | kon [4] [M⁻¹ s⁻¹] | further results |
| --- | --- | --- | --- | --- | --- | --- | --- | --- |
| RLEHFTKLRPKRNKKQQPTQA (CARMIL, mouse, residues 985–1005; also called CARMIL peptide; source: synthetic peptide, Invitrogen) [CA21, mouse CARMIL (residues 985–1005)] | binds | binds |  |  |  |  |  |  |
| SYLAHPTRDRAKIQHSRRPPTRG (CKIP-1, human, residues printed as 148–70, read as 148–170 (23 residues); also called CARMIL peptide; source: synthetic peptide, Invitrogen) [CK23, human CKIP-1 (148–70)] | binds | binds |  |  |  |  |  |  |
| GST-CA55 (domain or fragment, CARMIL, mouse, residues 962–1016) FPSVRQEKRSSGLISELPSEEGRRLEHFTKLRPKRNKKQQPTQAAVCTISILPQD |  |  | 4000 | > 0.1 |  |  |  |  |
| GST-CA76 (domain or fragment, CARMIL, mouse, residues 962–1037) FPSVRQEKRSSGLISELPSEEGRRLEHFTKLRPKRNKKQQPTQAAVCTISILPQDGEQNGLMGRVDEGVDEFFTKK |  |  |  |  | 80 | 0.019 | 230000 |  |
| FDSLTVRTSKETDVVNFDDIASSENLLHLTANRPKMPGRRLPGR (domain or fragment, CD2AP, human, residues 461–504; cloned into pGEX-6P-1) [GST-CD44] |  |  |  |  | 62 | 0.033 | 540000 |  |
| GST-CA92 (domain or fragment, CARMIL, mouse, residues 962–1053) FPSVRQEKRSSGLISELPSEEGRRLEHFTKLRPKRNKKQQPTQAAVCTISILPQDGEQNGLMGRVDEGVDEFFTKKVTKMDCKRSSSRSSDA |  |  |  |  | 3.3 | 0.0052 | 1.6e+06 | Kd [5]: 7400 nM; koff [5]: > 0.1 s⁻¹; Kd [6]: 1400 nM; koff [6]: > 0.1 s⁻¹; Kd [7]: 4900 nM; koff [7]: > 0.1 s⁻¹; Kd [8]: 10 nM; koff [8]: 0.0046 s⁻¹; kon [8]: 460000 M⁻¹ s⁻¹ |
| FDSLTVRTSKETDVVNFDDIASSENLLHLTANRPKMPGRRLPGRFNG (domain or fragment, CD2AP, human, residues 461–507; cloned into pGEX-6P-1) [GST-CD47] |  |  |  |  | 18 | 0.029 | 1.6e+06 |  |
| FDSLTVRTSKETDVVNFDDIASSENLLHLTANRPKMPGRRLPG (domain or fragment, CD2AP, human, residues 461–503; cloned into pGEX-6P-1) [GST-CD43] |  |  | 260 | > 0.1 |  |  |  |  |
| GST-CA63 (domain or fragment, CARMIL, mouse, residues 962–1024) FPSVRQEKRSSGLISELPSEEGRRLEHFTKLRPKRNKKQQPTQAAVCTISILPQDGEQNGLMG |  |  | 3300 | > 0.1 |  |  |  |  |
| NLLHLTANRPKMPGRRLPGRFNG (CD2AP, human, residues 485–507; also called CARMIL peptide; source: synthetic peptide, Invitrogen) [CD23, human CD2AP (485–507)] | binds | binds |  |  |  |  |  |  |
